Assays:
[1] = molecular target: PPARg:RXRa (Homo sapiens, UniProt P37231;P19793 full;full); assay: no ligand; PBM; 180 nM : 90 nM RXRa; PBS pH 7.4, 2% milk, 0.02% Triton X-100, 1 mM DTT, BSA, 0.4 mg/ml salmon testes DNA; details: tags: His kept;His cleaved; copies: 1;1; label: surface-attached array probe
[2] = molecular target: PXR:RXRa (Homo sapiens, UniProt O75469;P19793 full;full); assay: no ligand; PBM; 270 nM : 90 nM RXRa; PBS pH 7.4, 2% milk, 0.02% Triton X-100, 1 mM DTT, BSA, 0.4 mg/ml salmon testes DNA; details: tags: His kept;His cleaved; copies: 1;1; label: surface-attached array probe
Chain of PXR:RXRa (O75469 whole entry, chain 1 of 2): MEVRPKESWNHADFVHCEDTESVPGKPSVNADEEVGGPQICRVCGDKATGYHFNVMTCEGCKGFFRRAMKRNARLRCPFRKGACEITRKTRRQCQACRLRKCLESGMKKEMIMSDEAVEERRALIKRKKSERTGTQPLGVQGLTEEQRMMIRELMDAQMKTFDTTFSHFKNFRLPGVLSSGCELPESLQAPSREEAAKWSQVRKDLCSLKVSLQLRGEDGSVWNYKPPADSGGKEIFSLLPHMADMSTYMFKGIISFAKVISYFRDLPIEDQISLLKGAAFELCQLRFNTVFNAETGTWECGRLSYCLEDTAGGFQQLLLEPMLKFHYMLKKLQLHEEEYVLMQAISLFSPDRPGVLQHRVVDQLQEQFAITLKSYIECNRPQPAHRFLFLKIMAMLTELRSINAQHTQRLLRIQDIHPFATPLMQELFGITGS
Chain of PXR:RXRa (P19793 whole entry, chain 2 of 2): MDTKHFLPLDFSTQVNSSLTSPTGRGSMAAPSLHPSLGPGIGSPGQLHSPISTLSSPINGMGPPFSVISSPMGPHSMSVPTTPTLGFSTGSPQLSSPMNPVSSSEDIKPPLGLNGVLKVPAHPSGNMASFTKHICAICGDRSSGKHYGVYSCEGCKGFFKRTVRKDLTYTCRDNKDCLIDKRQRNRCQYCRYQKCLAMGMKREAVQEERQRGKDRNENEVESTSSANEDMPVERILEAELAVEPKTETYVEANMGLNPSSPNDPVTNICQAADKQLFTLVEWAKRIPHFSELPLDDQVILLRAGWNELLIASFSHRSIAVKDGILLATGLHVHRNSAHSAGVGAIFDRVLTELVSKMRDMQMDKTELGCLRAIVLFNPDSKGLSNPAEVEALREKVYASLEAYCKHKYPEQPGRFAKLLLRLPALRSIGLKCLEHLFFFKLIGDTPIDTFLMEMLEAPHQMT
Method in brief: (§1)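 Custom Agilent 4×180K protein-binding microarrays carried double-stranded probes, each with a 34-nt variable region. These regions held direct-repeat seeds, single-nucleotide variants, half-site ablations and random human genomic background sequences. Ligand-free nuclear receptor dimers were incubated on the arrays for 1 h, antibodies against each partner (one per run) detected binding, and scanned fluorescence was regression-normalized. Binding z-scores take the random background probes as reference.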

[3] = molecular target: RXRa (Homo sapiens, UniProt P19793); assay: no ligand; PBM; 180 nM; PBS pH 7.4, 2% milk, 0.02% Triton X-100, 1 mM DTT, BSA, 0.4 mg/ml salmon testes DNA; details: tags: His cleaved; chain copies: 2; label: surface-attached array probe
[4] = molecular target: RARg:RXRa (Homo sapiens, UniProt P13631;P19793 full;full); assay: no ligand; PBM; 270 nM : 90 nM RXRa; PBS pH 7.4, 2% milk, 0.02% Triton X-100, 1 mM DTT, BSA, 0.4 mg/ml salmon testes DNA; details: tags: His kept;His cleaved; copies: 1;1; label: surface-attached array probe
Method in brief: as §1

[5] = molecular target: PPARa:RXRa (Homo sapiens, UniProt Q07869;P19793 full;full); assay: as above; details: tags: GST kept;His cleaved; copies: 1;1; label: surface-attached array probe
Method in brief: as §1

[6] = molecular target: LXRa:RXRa (Homo sapiens, UniProt Q13133;P19793 full;full); assay: as above; details: tags: His kept;His cleaved; copies: 1;1; label: surface-attached array probe
Chain of LXRa:RXRa (Q13133 whole entry, chain 1 of 2): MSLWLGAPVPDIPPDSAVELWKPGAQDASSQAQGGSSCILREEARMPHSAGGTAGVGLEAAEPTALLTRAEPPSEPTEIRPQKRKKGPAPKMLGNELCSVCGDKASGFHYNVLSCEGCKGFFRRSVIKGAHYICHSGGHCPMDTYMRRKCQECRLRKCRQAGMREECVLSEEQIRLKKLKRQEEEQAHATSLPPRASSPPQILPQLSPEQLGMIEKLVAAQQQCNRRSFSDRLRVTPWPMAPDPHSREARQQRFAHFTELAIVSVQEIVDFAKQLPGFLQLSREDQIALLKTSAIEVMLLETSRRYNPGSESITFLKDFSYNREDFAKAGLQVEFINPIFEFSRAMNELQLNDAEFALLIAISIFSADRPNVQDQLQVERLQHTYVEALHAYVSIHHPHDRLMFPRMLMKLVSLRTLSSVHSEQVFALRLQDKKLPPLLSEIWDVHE
Chain of LXRa:RXRa (P19793 whole entry, chain 2 of 2): as the sequence (P19793 whole entry, chain 2 of 2) above
Method in brief: as §1

[7] = molecular target: RARb:RXRa (Homo sapiens, UniProt P10826;P19793 full;full); assay: as above; details: tags: His kept;His cleaved; copies: 1;1; label: surface-attached array probe
Chain of RARb:RXRa (P10826 whole entry, chain 1 of 2): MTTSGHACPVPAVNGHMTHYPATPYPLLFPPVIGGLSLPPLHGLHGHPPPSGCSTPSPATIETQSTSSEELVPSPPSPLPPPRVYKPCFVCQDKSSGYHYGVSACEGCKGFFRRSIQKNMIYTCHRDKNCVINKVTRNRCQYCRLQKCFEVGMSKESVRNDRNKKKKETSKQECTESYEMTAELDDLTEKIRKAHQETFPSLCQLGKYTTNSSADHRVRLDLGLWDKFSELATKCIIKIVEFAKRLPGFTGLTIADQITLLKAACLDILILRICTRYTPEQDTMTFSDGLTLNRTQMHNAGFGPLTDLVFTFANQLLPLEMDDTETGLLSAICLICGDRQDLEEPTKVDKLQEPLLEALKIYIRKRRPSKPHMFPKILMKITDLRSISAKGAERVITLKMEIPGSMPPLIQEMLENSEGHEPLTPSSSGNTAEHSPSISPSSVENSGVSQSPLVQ
Chain of RARb:RXRa (P19793 whole entry, chain 2 of 2): as the sequence (P19793 whole entry, chain 2 of 2) above
Method in brief: as §1

[8] = molecular target: FXR:RXRa (Homo sapiens, UniProt Q96RI1;P19793 full;full); assay: as above; details: tags: His kept;His cleaved; copies: 1;1; label: surface-attached array probe
Chain of FXR:RXRa (Q96RI1 whole entry, chain 1 of 2): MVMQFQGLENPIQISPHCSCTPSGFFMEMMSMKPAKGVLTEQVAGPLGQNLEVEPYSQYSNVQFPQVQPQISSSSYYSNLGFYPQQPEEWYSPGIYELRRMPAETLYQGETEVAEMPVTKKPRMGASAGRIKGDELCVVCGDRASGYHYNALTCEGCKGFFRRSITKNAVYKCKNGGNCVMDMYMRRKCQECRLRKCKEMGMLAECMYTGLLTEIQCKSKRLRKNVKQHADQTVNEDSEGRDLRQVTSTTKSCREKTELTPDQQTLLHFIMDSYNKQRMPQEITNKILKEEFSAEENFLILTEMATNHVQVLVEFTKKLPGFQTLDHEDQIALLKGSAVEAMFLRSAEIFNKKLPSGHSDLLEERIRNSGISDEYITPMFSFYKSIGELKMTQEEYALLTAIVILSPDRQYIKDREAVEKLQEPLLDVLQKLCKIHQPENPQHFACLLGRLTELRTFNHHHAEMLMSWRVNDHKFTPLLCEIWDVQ
Chain of FXR:RXRa (P19793 whole entry, chain 2 of 2): as the sequence (P19793 whole entry, chain 2 of 2) above
Method in brief: as §1

[9] = molecular target: LXRb:RXRa (Homo sapiens, UniProt P55055;P19793 full;full); assay: as above; details: tags: His kept;His cleaved; copies: 1;1; label: surface-attached array probe
Method in brief: as §1

[10] = molecular target: VDR:RXRa (Homo sapiens, UniProt P11473;P19793 full;full); assay: as above; details: tags: His kept;His cleaved; copies: 1;1; label: surface-attached array probe
Method in brief: as §1

Chain of PPARg:RXRa (P37231 29-505, chain 1 of 2): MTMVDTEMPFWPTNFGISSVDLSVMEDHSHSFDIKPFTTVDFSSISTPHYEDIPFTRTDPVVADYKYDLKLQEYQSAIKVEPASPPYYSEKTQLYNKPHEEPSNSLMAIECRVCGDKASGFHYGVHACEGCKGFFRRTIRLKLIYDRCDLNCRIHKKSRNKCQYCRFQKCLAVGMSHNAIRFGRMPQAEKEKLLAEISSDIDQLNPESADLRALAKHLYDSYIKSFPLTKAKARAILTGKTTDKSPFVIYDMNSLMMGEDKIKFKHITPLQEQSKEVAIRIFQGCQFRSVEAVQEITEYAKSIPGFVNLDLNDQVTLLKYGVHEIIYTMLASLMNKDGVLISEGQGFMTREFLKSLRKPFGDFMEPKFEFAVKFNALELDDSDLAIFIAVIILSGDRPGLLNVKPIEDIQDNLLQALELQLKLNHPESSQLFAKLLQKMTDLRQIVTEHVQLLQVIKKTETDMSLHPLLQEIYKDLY
Chain of PPARg:RXRa (P19793 whole entry, chain 2 of 2): as the sequence (P19793 whole entry, chain 2 of 2) above

B1: NRC3_wobSeed29_DR1_A7C_o1 (dsDNA)
DNA 1: GCGCTTCCGGGTCAAAGGTTATAGCATGAATAGAATGCGATTGACAGCGTAGAATGAAGG
DNA 2: CCTTCATTCTACGCTGTCAATCGCATTCTATTCATGCTATAACCTTTGACCCGGAAGCGC
[1]
  binding signal: 12.4 PBM z-score against 500 random probes
[2]
  binding signal: 6.49 PBM z-score against 500 random probes

B2: NRC3_random_hg19_319_o1 (dsDNA)
DNA 1: GCTCCCTGCCAGCCCTGGTCTGAAGCAAGCCTAGAGGCGATTGACAGCGTAGAATGAAGG
DNA 2: CCTTCATTCTACGCTGTCAATCGCCTCTAGGCTTGCTTCAGACCAGGGCTGGCAGGGAGC
[1]
  binding signal: -1.25 PBM z-score against 500 random probes
[2]
  binding signal: -0.63 PBM z-score against 500 random probes

B3: NRC3_wobSeed13_DR0_C7A_o1 (dsDNA)
DNA 1: GCCGTCAAAGGTCAAGGTCAGTGAAAGAGACTCGAAGCGATTGACAGCGTAGAATGAAGG
DNA 2: CCTTCATTCTACGCTGTCAATCGCTTCGAGTCTCTTTCACTGACCTTGACCTTTGACGGC
[3]
  binding signal: 8.68 PBM z-score against 500 random probes
[1]
  binding signal: 9.87 PBM z-score against 500 random probes
[4]
  binding signal: 8.25 PBM z-score against 500 random probes
[5]
  binding signal: 6.81 PBM z-score against 500 random probes
[6]
  binding signal: 7.37 PBM z-score against 500 random probes
[7]
  binding signal: 6.38 PBM z-score against 500 random probes
[8]
  binding signal: 9.06 PBM z-score against 500 random probes
[9]
  binding signal: 6.31 PBM z-score against 500 random probes

B4: NRC3_wobSeed93_DR3_T11G_o1 (dsDNA)
DNA 1: GCAGTCAAAGGTCATCTAGGTAACGTAAGATATGCTGCGATTGACAGCGTAGAATGAAGG
DNA 2: CCTTCATTCTACGCTGTCAATCGCAGCATATCTTACGTTACCTAGATGACCTTTGACTGC
[3]
  binding signal: 8.08 PBM z-score against 500 random probes
[1]
  binding signal: 10.1 PBM z-score against 500 random probes
[4]
  binding signal: 7.62 PBM z-score against 500 random probes
[5]
  binding signal: 7.57 PBM z-score against 500 random probes
[6]
  binding signal: 7.01 PBM z-score against 500 random probes
[7]
  binding signal: 6.16 PBM z-score against 500 random probes
[8]
  binding signal: 8.84 PBM z-score against 500 random probes
[9]
  binding signal: 6.47 PBM z-score against 500 random probes

B5: NRC3_random_hg19_169_o1 (dsDNA)
DNA 1: GCCTTCCCTGCTGCTTTGTTTACCTAAGCAAGCCTGGCGATTGACAGCGTAGAATGAAGG
DNA 2: CCTTCATTCTACGCTGTCAATCGCCAGGCTTGCTTAGGTAAACAAAGCAGCAGGGAAGGC
[1]
  binding signal: -1.09 PBM z-score against 500 random probes
[6]
  binding signal: -0.21 PBM z-score against 500 random probes
[7]
  binding signal: -0.32 PBM z-score against 500 random probes

B6: NRC3_random_hg19_68_o1 (dsDNA)
DNA 1: GCAGCAGTGAGGACCAATGGGCAGTCCAGGAGGAAAGCGATTGACAGCGTAGAATGAAGG
DNA 2: CCTTCATTCTACGCTGTCAATCGCTTTCCTCCTGGACTGCCCATTGGTCCTCACTGCTGC
[1]
  binding signal: -0.26 PBM z-score against 500 random probes
[6]
  binding signal: -0.72 PBM z-score against 500 random probes

B7: NRC3_wobSeed37_DR1_G22C_o1 (dsDNA)
DNA 1: GCCGTCCAAGGTCAAAGGTCACTGAAGAGATGACGGGCGATTGACAGCGTAGAATGAAGG
DNA 2: CCTTCATTCTACGCTGTCAATCGCCCGTCATCTCTTCAGTGACCTTTGACCTTGGACGGC
[1]
  binding signal: 11.9 PBM z-score against 500 random probes
[4]
  binding signal: 9.31 PBM z-score against 500 random probes
[10]
  binding signal: 7.17 PBM z-score against 500 random probes
[2]
  binding signal: 7.38 PBM z-score against 500 random probes

B8: NRC3_wobSeed37_DR1_C6A_o1 (dsDNA)
DNA 1: GCCGTACAAGGTCAAAGGTCAGTGAAGAGATGACGGGCGATTGACAGCGTAGAATGAAGG
DNA 2: CCTTCATTCTACGCTGTCAATCGCCCGTCATCTCTTCACTGACCTTTGACCTTGTACGGC
[1]
  binding signal: 12.3 PBM z-score against 500 random probes
[6]
  binding signal: 7.38 PBM z-score against 500 random probes
[8]
  binding signal: 8.85 PBM z-score against 500 random probes

B9: NRC3_wobSeed37_DR1_C6T_o1 (dsDNA)
DNA 1: GCCGTTCAAGGTCAAAGGTCAGTGAAGAGATGACGGGCGATTGACAGCGTAGAATGAAGG
DNA 2: CCTTCATTCTACGCTGTCAATCGCCCGTCATCTCTTCACTGACCTTTGACCTTGAACGGC
[1]
  binding signal: 11.8 PBM z-score against 500 random probes
[6]
  binding signal: 7.33 PBM z-score against 500 random probes
[8]
  binding signal: 8.83 PBM z-score against 500 random probes

B10: NRC3_wobSeed76_DR3_T21C_o1 (dsDNA)
DNA 1: GCCCTACTGGGCCAAAAAGGCCATTGATGCCGATAAGCGATTGACAGCGTAGAATGAAGG
DNA 2: CCTTCATTCTACGCTGTCAATCGCTTATCGGCATCAATGGCCTTTTTGGCCCAGTAGGGC
[1]
  binding signal: 0.38 PBM z-score against 500 random probes
[2]
  binding signal: -0.08 PBM z-score against 500 random probes

B11: NRC3_wobSeed73_DR3_A6T_o1 (dsDNA)
DNA 1: GCCAATCTAGGTCACAGAGGTCAAAGTCCGTGCGTAGCGATTGACAGCGTAGAATGAAGG
DNA 2: CCTTCATTCTACGCTGTCAATCGCTACGCACGGACTTTGACCTCTGTGACCTAGATTGGC
[1]
  binding signal: 10.7 PBM z-score against 500 random probes
[2]
  binding signal: 7.27 PBM z-score against 500 random probes

B12: NRC3_random_hg19_250_o1 (dsDNA)
DNA 1: GCCAAGACCATCCTGGCTAACACAGTGAAACCCTGTGCGATTGACAGCGTAGAATGAAGG
DNA 2: CCTTCATTCTACGCTGTCAATCGCACAGGGTTTCACTGTGTTAGCCAGGATGGTCTTGGC
[1]
  binding signal: 0.19 PBM z-score against 500 random probes
[10]
  binding signal: -0.26 PBM z-score against 500 random probes
[6]
  binding signal: -0.15 PBM z-score against 500 random probes
[7]
  binding signal: -0.3 PBM z-score against 500 random probes
[8]
  binding signal: 0 PBM z-score against 500 random probes
[9]
  binding signal: -0.42 PBM z-score against 500 random probes

B13: NRC3_random_hg19_385_o1 (dsDNA)
DNA 1: GCTCTATGGTCACTAGACCTTGGGATGCACCAAGGCGCGATTGACAGCGTAGAATGAAGG
DNA 2: CCTTCATTCTACGCTGTCAATCGCGCCTTGGTGCATCCCAAGGTCTAGTGACCATAGAGC
[1]
  binding signal: 0.45 PBM z-score against 500 random probes
[6]
  binding signal: 0.2 PBM z-score against 500 random probes
[2]
  binding signal: 0.11 PBM z-score against 500 random probes

B14: NRC3_random_hg19_106_o1 (dsDNA)
DNA 1: GCAAGGAATGTAATCTAACTCTGTATTCAAAGAAGAGCGATTGACAGCGTAGAATGAAGG
DNA 2: CCTTCATTCTACGCTGTCAATCGCTCTTCTTTGAATACAGAGTTAGATTACATTCCTTGC
[1]
  binding signal: 0.5 PBM z-score against 500 random probes
[6]
  binding signal: -0.1 PBM z-score against 500 random probes

B15: NRC3_random_hg19_290_o1 (dsDNA)
DNA 1: GCGCCTCCATCTCAGGACTTGATTCTATTGAGTTAAGCGATTGACAGCGTAGAATGAAGG
DNA 2: CCTTCATTCTACGCTGTCAATCGCTTAACTCAATAGAATCAAGTCCTGAGATGGAGGCGC
[1]
  binding signal: -0.43 PBM z-score against 500 random probes
[4]
  binding signal: -0.59 PBM z-score against 500 random probes
[5]
  binding signal: -0.45 PBM z-score against 500 random probes
[2]
  binding signal: -0.26 PBM z-score against 500 random probes

B16: NRC3_random_hg19_499_o1 (dsDNA)
DNA 1: GCCATGTGGACTTCATTCGACCCAGCTGAGAAGACTGCGATTGACAGCGTAGAATGAAGG
DNA 2: CCTTCATTCTACGCTGTCAATCGCAGTCTTCTCAGCTGGGTCGAATGAAGTCCACATGGC
[1]
  binding signal: 0.35 PBM z-score against 500 random probes
[6]
  binding signal: 0.09 PBM z-score against 500 random probes
[9]
  binding signal: 0.14 PBM z-score against 500 random probes

B17: NRC3_random_hg19_195_o1 (dsDNA)
DNA 1: GCGGACTGTCTGCAAAGAGTCCTGTGATATGATCTGGCGATTGACAGCGTAGAATGAAGG
DNA 2: CCTTCATTCTACGCTGTCAATCGCCAGATCATATCACAGGACTCTTTGCAGACAGTCCGC
[1]
  binding signal: 0.1 PBM z-score against 500 random probes
[6]
  binding signal: -1.32 PBM z-score against 500 random probes
[2]
  binding signal: -0.96 PBM z-score against 500 random probes

B18: NRC3_random_hg19_455_o1 (dsDNA)
DNA 1: GCCTGCAGTTTCTGTTTCCGTGGTCCAGGTTGAGCCGCGATTGACAGCGTAGAATGAAGG
DNA 2: CCTTCATTCTACGCTGTCAATCGCGGCTCAACCTGGACCACGGAAACAGAAACTGCAGGC
[1]
  binding signal: -2.08 PBM z-score against 500 random probes
[2]
  binding signal: -0.33 PBM z-score against 500 random probes

B19: NRC3_wobSeed33_DR1_A13T_o1 (dsDNA)
DNA 1: GCATCTCTAGGTTAAAGTTCAGTGAATCCCGAGGATGCGATTGACAGCGTAGAATGAAGG
DNA 2: CCTTCATTCTACGCTGTCAATCGCATCCTCGGGATTCACTGAACTTTAACCTAGAGATGC
[1]
  binding signal: 10 PBM z-score against 500 random probes
[2]
  binding signal: 3.64 PBM z-score against 500 random probes

From article PMC6555819, “Comprehensive study of nuclear receptor DNA binding provides a revised framework for understanding receptor specificity”
